Results taken from PMC3257359 (Cell research, 2011).
No end group written: not given here. *: point of attachment. Biotin = O=C1N[C@H]2[C@H](CS[C@H]2CCCCC(=O)*)N1

T1: human PPARγ LBD (residues 206-477) (human, UniProt P37231-2 206-477)
T1 sequence: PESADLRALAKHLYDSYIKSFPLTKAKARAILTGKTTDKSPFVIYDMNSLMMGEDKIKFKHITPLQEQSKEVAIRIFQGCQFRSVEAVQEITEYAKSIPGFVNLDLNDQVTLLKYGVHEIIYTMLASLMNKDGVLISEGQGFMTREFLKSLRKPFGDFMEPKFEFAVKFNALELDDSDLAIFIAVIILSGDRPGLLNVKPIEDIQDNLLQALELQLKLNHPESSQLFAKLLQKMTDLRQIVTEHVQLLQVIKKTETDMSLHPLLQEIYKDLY


Target: T1, human PPARγ LBD (residues 206-477)
Assay: AlphaScreen or HTRF

Binder	binding result
Biotin-SPSSHSSLTERHKILHRLLQEGSP	binds
Biotin-SGNLVPDAASKHKQLSELLRGGSG [CBP-1 peptide (coactivator LXXLL motif of CBP), N-terminally biotinylated]	binds
Biotin-QEPVSPKKKENALLRYLLDKDDTKD	binds
Biotin-QKPTSGPQTPQAQQKSLLQQLLTE	binds
